Patent US5677159A, “Genomic DNA of human cholesterol 7α-hydroxylase and methods for using it” (Northeastern Ohio University, priority 1995, dated 1997)

Test system: T1, CC(C)CCC[C@@H](C)[C@H]1CC[C@H]2[C@@H]3CC=C4C[C@@H](O)CC[C@]4(C)[C@H]3CC[C@]12C
T1 construct: Met-Ala (from the NcoI cloning site) in front of Arg25 (N); made in house; host or cells: E. coli TOPP3 carrying pJL/H7α1.5 (ATCC 69401)
Assay: Reconstitution assay of cholesterol 7α-hydroxylase activity at different concentrations of cholesterol (Lineweaver-Burke plot)
Assay type: biochemical, human
Conditions: other: purified truncated enzyme reconstituted with NADPH-cytochrome P450 reductase and phospholipid, 1 mM NADPH, 37° C., 20 minutes, pH 7.4
Procedure: FIG. 10 illustrates a Lineweaver-Burke plot of activities of truncated human and truncated rat cholesterol 7α-hydroxylase in E. coli. Truncated CYP7 activity was measured using a reconstitution assay, such as that described in Example 10, at different concentrations of cholesterol, as indicated. Linear regression was used to draw the line.
The truncated enzyme was purified from recombinant bacteria. Purification methodology is described by Li and Chiang, J. Biol. Chem. 266 (29): 19186 (1991), the contents of which are expressly incorporated by reference herein in its entirety. The activity of CYP7, in both the presence and absence of the compound, is measured as described by Chiang, Meth. Enzym. 206: 483 (1991), the contents of which is expressly incorporated by reference herein in its entirety. […]
The Km and Vmax for cholesterol have been determined in comparison with the truncated, bacterially expressed rat CYP7 enzyme (FIG. 10). […]

Work on “truncated human cholesterol 7α-hydroxylase (CYP7), amino acids 1 to 24 of the membrane anchor region deleted, SEQ ID NO:5, expressed in E. coli TOPP3-pJL/H7α1.5 (Homo sapiens)” yielded a Km of 5.85 µM and a Vmax of 0.13 nmol/min.
